{"source": "patent US20230357431A1", "key": {"[1]": {"molecular_target": "VH3VL1-CD8ATD-CD137CSD-CD3zSSD fusion (anti-P329G chimeric antigen receptor)", "sequence (chain, as listed by the source P329G P329G)": "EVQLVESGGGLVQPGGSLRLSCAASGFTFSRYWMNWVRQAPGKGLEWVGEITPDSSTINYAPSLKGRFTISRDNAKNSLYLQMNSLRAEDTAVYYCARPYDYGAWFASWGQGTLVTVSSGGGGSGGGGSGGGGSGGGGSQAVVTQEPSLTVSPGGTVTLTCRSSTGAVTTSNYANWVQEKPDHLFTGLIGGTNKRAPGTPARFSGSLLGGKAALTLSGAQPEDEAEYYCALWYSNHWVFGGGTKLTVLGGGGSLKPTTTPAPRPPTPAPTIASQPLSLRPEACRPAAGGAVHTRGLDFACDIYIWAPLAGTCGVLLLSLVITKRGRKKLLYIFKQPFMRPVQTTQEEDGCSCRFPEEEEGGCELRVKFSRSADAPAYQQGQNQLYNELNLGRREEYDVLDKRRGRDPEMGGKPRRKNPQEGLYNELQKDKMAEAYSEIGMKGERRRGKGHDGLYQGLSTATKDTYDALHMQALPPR"}, "[2]": {"molecular_target": "VH2VL1-CD8ATD-CD137CSD-CD3zSSD fusion (anti-P329G chimeric antigen receptor)", "sequence (chain, as listed by the source P329G P329G)": "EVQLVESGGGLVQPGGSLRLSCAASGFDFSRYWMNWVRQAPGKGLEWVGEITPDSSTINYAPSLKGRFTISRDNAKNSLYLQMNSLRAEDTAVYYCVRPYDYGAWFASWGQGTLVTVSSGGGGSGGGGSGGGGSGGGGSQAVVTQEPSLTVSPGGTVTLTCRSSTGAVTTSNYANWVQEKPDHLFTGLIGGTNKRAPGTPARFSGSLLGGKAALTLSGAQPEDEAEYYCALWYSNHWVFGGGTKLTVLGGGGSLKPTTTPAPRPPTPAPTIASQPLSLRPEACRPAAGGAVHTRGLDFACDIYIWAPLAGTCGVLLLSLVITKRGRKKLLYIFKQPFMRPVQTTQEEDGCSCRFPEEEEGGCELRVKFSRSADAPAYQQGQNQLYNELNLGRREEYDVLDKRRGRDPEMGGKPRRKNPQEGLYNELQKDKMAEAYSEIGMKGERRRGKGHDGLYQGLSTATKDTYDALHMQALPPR"}, "[3]": {"molecular_target": "VL1VH3-CD8ATD-CD137CSD-CD3zSSD fusion (anti-P329G chimeric antigen receptor, VLVH orientation)", "sequence (chain, as listed by the source P329G P329G)": "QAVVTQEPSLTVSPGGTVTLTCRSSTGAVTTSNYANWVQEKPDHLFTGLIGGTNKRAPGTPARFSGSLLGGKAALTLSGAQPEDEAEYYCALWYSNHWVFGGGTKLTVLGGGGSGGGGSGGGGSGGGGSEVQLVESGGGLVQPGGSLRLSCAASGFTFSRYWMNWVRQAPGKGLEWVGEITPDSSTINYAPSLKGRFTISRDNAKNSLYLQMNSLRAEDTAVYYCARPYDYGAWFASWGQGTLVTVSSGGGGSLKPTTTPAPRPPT"}, "[4]": {"molecular_target": "VH1VL1-CD8ATD-CD137CSD-CD3zSSD fusion (anti-P329G chimeric antigen receptor)", "sequence (chain, as listed by the source P329G P329G)": "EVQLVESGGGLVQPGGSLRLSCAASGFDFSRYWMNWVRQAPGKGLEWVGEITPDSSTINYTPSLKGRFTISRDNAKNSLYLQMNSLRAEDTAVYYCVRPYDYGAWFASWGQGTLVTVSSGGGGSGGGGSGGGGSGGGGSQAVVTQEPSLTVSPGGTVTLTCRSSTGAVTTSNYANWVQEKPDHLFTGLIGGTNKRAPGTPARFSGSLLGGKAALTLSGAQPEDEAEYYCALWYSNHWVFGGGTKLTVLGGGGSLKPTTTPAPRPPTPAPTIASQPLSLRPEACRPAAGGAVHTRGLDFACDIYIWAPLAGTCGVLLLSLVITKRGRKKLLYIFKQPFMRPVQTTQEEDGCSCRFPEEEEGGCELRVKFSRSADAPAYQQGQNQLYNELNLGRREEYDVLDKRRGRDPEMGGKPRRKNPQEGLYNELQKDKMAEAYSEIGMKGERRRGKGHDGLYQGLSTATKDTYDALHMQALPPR"}, "[5]": {"molecular_target": "VH3VL1-CD8ATD-CD137CSD-CD3zSSD fusion (anti-P329G chimeric antigen receptor)", "remark": "listed apart in the source"}, "[6]": {"molecular_target": "VH2VL1-CD8ATD-CD137CSD-CD3zSSD fusion (anti-P329G chimeric antigen receptor)", "remark": "listed apart in the source"}, "[7]": {"molecular_target": "VL1VH3-CD8ATD-CD137CSD-CD3zSSD fusion (anti-P329G chimeric antigen receptor, VLVH orientation)", "remark": "listed apart in the source"}, "[8]": {"molecular_target": "VH1VL1-CD8ATD-CD137CSD-CD3zSSD fusion (anti-P329G chimeric antigen receptor)", "remark": "listed apart in the source"}, "[9]": {"molecular_target": "VL1VH3-CD8ATD-CD137CSD-CD3zSSD fusion (anti-P329G chimeric antigen receptor, VLVH orientation)", "remark": "listed apart in the source"}, "[10]": {"molecular_target": "VH1VL1-CD8ATD-CD137CSD-CD3zSSD fusion (anti-P329G chimeric antigen receptor)", "remark": "listed apart in the source"}, "[11]": {"molecular_target": "VH3VL1-CD8ATD-CD137CSD-CD3zSSD fusion (anti-P329G chimeric antigen receptor)", "remark": "listed apart in the source"}, "[12]": {"molecular_target": "VH2VL1-CD8ATD-CD137CSD-CD3zSSD fusion (anti-P329G chimeric antigen receptor)", "remark": "listed apart in the source"}, "[13]": {"molecular_target": "VL1VH3-CD8ATD-CD137CSD-CD3zSSD fusion (anti-P329G chimeric antigen receptor, VLVH orientation)", "remark": "listed apart in the source"}, "[14]": {"molecular_target": "VH1VL1-CD8ATD-CD137CSD-CD3zSSD fusion (anti-P329G chimeric antigen receptor)", "remark": "listed apart in the source"}, "[15]": {"molecular_target": "VH3VL1-CD8ATD-CD137CSD-CD3zSSD fusion (anti-P329G chimeric antigen receptor)", "remark": "listed apart in the source"}, "[16]": {"molecular_target": "VH2VL1-CD8ATD-CD137CSD-CD3zSSD fusion (anti-P329G chimeric antigen receptor)", "remark": "listed apart in the source"}, "[17]": {"molecular_target": "VL1VH3-CD8ATD-CD137CSD-CD3zSSD fusion (anti-P329G chimeric antigen receptor, VLVH orientation)", "remark": "listed apart in the source"}}, "note": "Like-named read-outs stand apart in the source and are kept apart here."}
{"substance": "DP47 P329G LALA (antibody)", "values": [{"measurement": "EC50, Jurkat NFAT luciferase reporter (RLU/s), WSUDLCL2 target cells 5:1, non-targeting antibody; flat at about 90 RLU/s with a small rise to about 190 RLU/s at the last point, no plateau", "setting": "[1]", "result": 43200, "unit": "pM"}, {"measurement": "EC50, Jurkat NFAT luciferase reporter (RLU/s), WSUDLCL2 target cells 5:1, non-targeting antibody; the curve stays at about 60 to 90 RLU/s (no activation), so the fitted value has no meaning", "setting": "[2]", "result": 293, "unit": "pM"}, {"measurement": "EC50, Jurkat NFAT luciferase reporter (RLU/s), WSUDLCL2 target cells 5:1, non-targeting antibody; the curve stays at about 60 to 110 RLU/s (no activation), so the fitted value has no meaning", "setting": "[3]", "result": 7420, "unit": "pM"}]}
{"substance": "anti-CD20 (GA101) D246A P329G IgG1 (antibody)", "values": [{"measurement": "EC50, Jurkat NFAT luciferase reporter (RLU/s), WSUDLCL2 target cells 5:1; sigmoid curve with upper plateau", "setting": "[4]", "result": 8.14, "unit": "pM"}, {"measurement": "EC50, Jurkat NFAT luciferase reporter (RLU/s), WSUDLCL2 target cells 5:1; sigmoid curve with upper plateau", "setting": "[5]", "result": 5.82, "unit": "pM"}, {"measurement": "EC50, Jurkat NFAT luciferase reporter (RLU/s), WSUDLCL2 target cells 5:1; sigmoid curve with upper plateau", "setting": "[6]", "result": 10.4, "unit": "pM"}, {"measurement": "EC50, Jurkat NFAT luciferase reporter (RLU/s), WSUDLCL2 target cells 5:1; sigmoid curve with upper plateau", "setting": "[7]", "result": 6.19, "unit": "pM"}]}
{"substance": "anti-CD20 (GA101) LALA IgG1 (antibody)", "values": [{"measurement": "EC50, Jurkat NFAT luciferase reporter (RLU/s), WSUDLCL2 target cells 5:1; the curve is flat (no activation), so the fitted value has no meaning", "setting": "[8]", "result": 0.0485, "unit": "pM"}, {"measurement": "EC50, Jurkat NFAT luciferase reporter (RLU/s), WSUDLCL2 target cells 5:1; the curve is flat (no activation), so the fitted value has no meaning", "setting": "[9]", "result": 0.000234, "unit": "pM"}]}
{"substance": "anti-CD20 (GA101) P329G LALA IgG1 (antibody)", "values": [{"measurement": "EC50, Jurkat NFAT luciferase reporter (RLU/s), WSUDLCL2 target cells 5:1; sigmoid curve with upper plateau", "setting": "[10]", "result": 8.1, "unit": "pM"}, {"measurement": "EC50, Jurkat NFAT luciferase reporter (RLU/s), WSUDLCL2 target cells 5:1; sigmoid curve with upper plateau", "setting": "[11]", "result": 7.57, "unit": "pM"}, {"measurement": "EC50, Jurkat NFAT luciferase reporter (RLU/s), WSUDLCL2 target cells 5:1; sigmoid curve with upper plateau", "setting": "[12]", "result": 6.93, "unit": "pM"}, {"measurement": "EC50, Jurkat NFAT luciferase reporter (RLU/s), WSUDLCL2 target cells 5:1; sigmoid curve with upper plateau", "setting": "[13]", "result": 6.58, "unit": "pM"}]}
{"substance": "anti-CD20 (GA101) wild type IgG1 (antibody)", "values": [{"measurement": "EC50, Jurkat NFAT luciferase reporter (RLU/s), WSUDLCL2 target cells 5:1; the curve is flat (no activation), so the fitted value has no meaning", "setting": "[14]", "result": 2.19, "unit": "pM"}, {"measurement": "EC50, Jurkat NFAT luciferase reporter (RLU/s), WSUDLCL2 target cells 5:1; the curve is flat (no activation), so the fitted value has no meaning", "setting": "[15]", "result": 85, "unit": "pM"}, {"measurement": "EC50, Jurkat NFAT luciferase reporter (RLU/s), WSUDLCL2 target cells 5:1; the curve is flat (no activation), so the fitted value has no meaning", "setting": "[16]", "result": 0.000119, "unit": "pM"}, {"measurement": "EC50, Jurkat NFAT luciferase reporter (RLU/s), WSUDLCL2 target cells 5:1; the curve is flat (no activation), so the fitted value has no meaning", "setting": "[17]", "result": 78.3, "unit": "pM"}]}
